For 19 sequences, protein production results are on record in a protein production outcome set (Wang et al. 2014).
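Note: failed if final PepcDB status was selected cloned or expressed and not failed if soluble or beyond.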

The nature of this series: label from the status in PepcDB records.
Regarding “MKCYLTGCIAGPLAFSEDLELIDYEPFPVDEIPGRLAESQMGGVSPEERIMLERLTPEYDEVVVEASPSPEYAGFRNLRFEVPSRAGIHLRENLEDILAEILDMPAGDFIHDALMSVARERLRESLRETDRFIIQSINALDELDEETGKLIERLREWYSLHFPELDGIKSHEQYVELIAEYGDRDQILKNFRMDVDESLGSDITSEDLHILRGLAESIRGLQRLREETERYIDIKMEKLAPNLRALAGSNVGARLIAHAGGLRELAMLPSSTIQVLGAEKALFRHLKSGAKPPKHGVIFQHPSIRSSPWWIRGKVARLLAGKIAIAVRKDVFSREFDPGIVESFNERFEAIKSNNPKPPARKKGFRKKRK”, the protein production entry was “failed”. Under “MKDGEAATGQAASRPKRADARRNEKNLLDAAAAVFVRSGVEAPVRDIAAEAGVGTATIYRHFPTRADLIIGVYRHQVEACAEAGPALLASSPTPYAALAGWIDLFVDFLVTKHGLAAVLQSDSAGFETLHAYFLDRLVPVCTDLLAAATDSGEIDTDVPPLALMRGVGNLCIGAETPNPSYDARQLVRILIAGLRAAD” stands “not failed”; under “MKDILWLMQKTLSVLLKNKKGLLIIISLPIIGTLISFSIYGNAGQGALNIGVINKENESIANDTVKFLEEINHVKVSKVKESEVEDKLTSKKLDGVITLQSGFSESVREGKPSNIEISSIKGDQVTAFIKSYLYNYIDNVAAISKVAGTDQSAFDTMYAGYQKSSFKVKTETLEDTSKNKDMTNQTMGYLIMFMLFSAVNLSGYILKEKENRTYFRLLSTPIDGKKFILSNVGVNMIILTVQIMITILFLTNVFHTNINMPFIVMVGVLMIFALIAIGMSLVIVAFSKNSSSANAMQNMVIVPTCLLAGCYFPYDIMPSAVQKVANFLPQRWLLDTVSKLQQGIPFSELYLNILILFAFAIAFFLIAIYKFGRNNDARNFV”, “failed”.

For the sequence “MKDPLLNSLIYVSRYYGLANSPEALVNGLPLSDGKLTPFLLPRAAERAGLVAKENRAELEKISSLILPAILVLKGGDSCVLNSINMETREAEVTTLESGMVPISIPLEDLLEQYTGRYFLVKKQFR”, the protein production result is listed as “not failed”.

“MKDSDKEKENGKMGCWSIEHVEQYLGTDELPKNDLITYLQKNADAAFLRHWKLTGTNKSIRKNRNCSQLIAAYKDFCEHGTKSGLNQG”: the protein production result was “not failed”. In the case of “MKEDRVVFIFGPTAVGKSNILFHFPKNKAEIINVDSIQVYKEFNIASSKPSKNLMKHIKHHLVDFLDPEKDYTIGIFYEQALKIVKEIRQKKKIPIFVGGTAFYFKHLKDGFPSTPLVTSKIRIYVNNLLELKGKSYLLKELKNVDPIRFNMLNKNDIYRIKRSLEVYYQTGIPISQFQKKQSSEFKNIVIIGLKRSFEDLKTRISIRINEMLNSGLLSEIKGLFSKGYNENTPAFKGIGYNEFLLWKSRPCYGLNDIIGLINKNSFLYAKRQMTFFAKISDVLWLHPEDDLDNILNLIFKVDKEI”, the protein production entry is listed as “failed”.

In the case of “MKEEIVNERQCETEDEKIDIQQLLFKYIIHWPWFVGAVLVCLIGAWIYLRMATPVYNISATVLIKDDKKGGNTGSMVGLEELGLSGLISSSQNIDNELEVLRSKTLVKEVINLLNLYVSYTDEDGFPSKNMYKTSPVLVSLTPQEAEKLTDPMVVEMALYGEGGLEVNVTVGDKEYQKHFEKLPAVFPMDEGTLAFFQSPDSLSLKKDTMEASSNIRHITAKIKSPMKVARAYCENLKIEPTSKTTSVAVISLKNSSLQRGQDFINQLLEMYNRNTNNDKNEIAQKTAEFIDERINIISKELGSTEANLENFKRNAGITDLTSEAQIALTGNAEYEKKRVENRTQISLIEDLRKYIRGNEYEVLPGNIGLQDPGLVATIERYNEMLVERKRLLRTSTENNPTIINLDTSIRAMKSNVQATLDGSLKGLLITKADLEREASRFSRRISDAPGQERQFVSIARQQEIKAGLYLMLLQKREENAIALAATANNAKIIDEAIADDIPVSPKRRMIYLIALVLGIGIPVGIIYLIGLTKFKLEGRADVEKLTTIPIVGDIPLTDEKNEKDGSIAVFENQNNLMSETFRNIRTNLQFMLQNDKKVILVTSTVSGEGKSFISANLAISLSLLGKKVVIVGLDIRKPGLNKVFRLSTKEKGITLYLANPETDLMSLVQPSDINQNLYILPGGTVPPNPTELLARDGLDKAIEILKKNFDYVILDTAPVGMVTDTLLIGRVADLSVYVCRADYTHKVEYTLINELAEEKKLPNLCTVINGVDLKRRKYGYYYGYGKYGKYYGYGKRYGYGYGYGQEKGAKS”, the protein production result is “failed”. Turning to “MKEELKREYERIKDRISPEEFEELIEKKKEELGDIGFMDDLTIASTVVDDILKEKNTMLSEKPEHRMDTISKLEEGAETPVTGRVMKISSPRTFTTRKGREGKLANVIIADDTGELRAVFWTENIKLLKKFREGDVIRIKDVNIRGGFGGRKEAHLMPRSTVEVLDPEDYPEFPEYREEITPIGDLVEDDEVNVIARITGVSRVRTFERDGREGRFISLDIMDATGSTTYTLWNNDVNLVEELGLKEGDAVKILWAQPRRRDDKVTLTHTSLTRVVPGEYDVPEFREELVKIGDLHEMRNVTVMGLVTKVNDPVEFERNDGTTGSVKSIEIADDTGSARVTLWDEDTRIKINKGDIIRISGANVEFDDFNQSYRINTNFNTRITLNPESDGALLKVLEEYREQMRPMKISEILEMEDEGEEVDVVGRIFSLSDPREFEREDGTGIVRSMELADETGKIRISLWDEKAEKPMNIGDAVRIENARIRLGLYSVELSAGRTTRIVNPLPEDMEDLPSFEELEEMLYQTKKIADLEEDDRNIRIIARVVDLFEPREFQRGDGTPGLVRTAEFADDTGSIRASLWDDAAEKPLSIGDPVKIENPRVVFRDDMGGGRLETQHRKQFKD”, the protein production entry is given as “failed”. Next, “MKEFRKILEDKAFFFTTLYILISFLVFKIFPDVFAVIVLMVFFTLLLDPVIRFLEKLKFGKYFSRVAALLLFFFVMVYSLYMIIPPVFNEFGSFIEFMTKVFESKIWKDYIKSPELMPVFDKIMNFLEPKLTDFLNYVFSLVTTNFVSVTTIIVFTLFGLGYTVFYIREIASFFVLIYPKSVRAEAREFFRDVYASMGRYIRVIFINAVIIGLSYWIVFEAFNLKYSAIISLWAFVTNFIPIVGVVLEYIPVLLFSLTLGVKGVLLIALFAILIHAVAFVVFIQLMKGLEKLNPVYIILSILFFGKLFGLFGSFVGVPLALFFKVFWRKFLRPLFEAG”: “failed”. Under “MKEGIELNTKKRIIGLDFARALAMFGMLLVNFMVITGAEGNGPPFLITLMSLFEGRASALFVILAGIGISLMTRSSVARNEKIKISNSRKIIWKRALFLFILGLLLYVMEWTGDILHYYGVYLFVAALLITVRKKALLFLSIIILLLAQSLQLTFNAFEGWGGPTPFINYVDFWTVNGFLRNLFFNGYHPFSHRFSFFLIGMIIGRLDLHNKKIRDRLLLLGITFTILIELLSKGLTYYFIPHIGKAAATFLFNTGPVLPNVLYILSATGSAIAILILCLYITEKYENNWFVTSIIQTGQLTLTHYVSHVFIGIGTLILFNRMEHQTLLFVLLFATVFFIFSILFSVLWRKKFSRGPIEWIMRKLAS” stands “not failed”; under “MKEICMLLVAVILWGTAIAPTKWALESIQPFTLLFIRLFFAGGICMIFSFKELQKSVVHKKVPWKRMSLLAFTGVAGYFMFTSYGISLTSGLHVSIIDAALPLVTILFSALFLKEEIRLNYWIGIILGAIGVLFITIPSKSANQEVSLIGDILILLSTFLFAFYTVLLKRPKQEQYLSNEVFTTLTLIIGAVILLPFALVEIFYYGLPKVETWKTVLSVIYLVIGATILAYWFWNKALERVSASVSGLYLNALPLISIITSIILLNESLTWRVIMGASLVLIGVGWADKQKLCNLLKGNKVENRDC”, “failed”; under “MKEKISEKEYKALIRKIGKEHFDGEKEEYGDGTVGVWTYELRKYKLKPPVKVKYVTQEQFQEYKDSNNQRLIKIETTLAAQGEQIRIQVEQIKELQIEQKAQGETLKLILQTLQKMSDRLDKMEVKMDKMEEKMDKMEGKIDKIENRMDKMEVKMDKMEKRIDKLESKLEHHHHHH”, “failed”.

As to “MKEKLWTTTFVVNMLLNFIFYLVFYLPTVVIGTMAMERYHASASIAGILSGIFIVGGFIARLWAGNNMKRLGAKKLLYIGTLIYFLLTFAYFFVHSVVLLLILRLVHGLGFGIAATASGTLAGAIVPSSRRGEGIGYYALSVTLSSAVGPFLSMFLYRTSGFYSLIWLSALLLFIALVGIFFIHVEKTTDSSNSVDNKVHKKFAWSNYFEKEALPISLIAFLIGISYSSILSFMDAYARNIHLSEAASFFFLVYAITVLLSRPITGRVFDGFGDNFVMYPTYLFFALGLLLIGFAHSGWMLLLAAIFIGLGYGSFSPFGQAIAIRNSEAHRLGITTSTFFGFMDMGVGFGPFILGMFMPLLGYRNLYFASAILALLIAVIYHFVHGRHAKREN”, the protein production entry is given as “failed”.

Take “MKELIKEHQKDINPALQLHDWVEYYRPFAANGQSANYIPALGKVNDSQLGICVLEPDGTMIHAGDWNVSFTMQSISKVISFIAACMSRGIPYVLDRVDVEPTGDAFNSIIRLEINKPGKPFNPMINAGALTIASILPGESAYEKLEFLYSVMETLIGKRPRIHEEVFRSEWETAHRNRALAYYLKETNFLEAEVEETLEVYLKQCAMESTTEDIALIGLILAHDGYHPIRHEQVIPKDVAKLAKALMLTCGMYNASGKYAAFVGVPAKSGVSGGIMALVPPSARREQPFQSGCGIGIYGPAIDEYGNSLTGGMLLKHMAQEWELSIF”: the protein production result is given as “not failed”.

For “MKELQEKNEQITLLVEMSDIMLACGSQEELSEVMAKYSQRLLQFSSGYLFIMHPSKNYLEKAASWGNPHPHDLTFTPEQCWAIRLGRIHYAGSSRIELMCSHMMFDEQPELSLLCVPLMAQNDIYGLLYLEVGLKFDENQQLLITAFAELTALALANVRLRENLRYQSIR”, the protein production entry was “failed”. With “MKEPPMTKTVFHLGVTEADLNGATLAIIPGDPARVQKIAELMDNPVFLASHREYTVYRAELDGQSVVVCSTGIGGPSTSIAVEELAQLGVRTFLRVGTTGAIQPHVNVGDMIVTTGSVRLDGASLHFAPMEFPAVPDFDVATAMKAAAQESGATVHMGVTASSDTFYPGQERYDTFTGRVVRRFQGSMKEWQDMGVLNFEMESATLLTMCASSGLKAGCVAGVIINRTQKEIPDHATLKETEARSIKVVVEAARKMLK”, the protein production entry is “not failed”. “MKERIVGQSGELFCFGQMPVWKVENLPEVLLSGYSSEEGEWVCLNVLQGDVEVRAPDGSAEVWSADGGDCVFAPQQVFSVKPKTDDAEIRLSLYCAAADYFHKKYGMSATHSAVAAARDTVPAGRALDMGCGQGRNALFLGLKGFEVTAVDHNPAALANVAELAEAEGLNVRTLEYDLNAAALQGEFDYIVATVVLMFLMPQRVPDVIADMQAHTAAGGYNLIVSAMDTADFPCPMPFPFKFKEGELKDYYRDWELVEYKEELGSMHAKDENGNPIRFKFVTMLAKKPELEHHHHHH”: the protein production result is given as “failed”. In the case of “MKFDESKTLLPVRKPVNGNRKTAGYKLWVLIAVLLLAFGSMLTGSVSLKGIGLFHSADGVNAFSFGDDLDVLEIEEREKVVRQMWDVYGRSGGVKVPRFWREAFEAAYEFLISDSAAVRNAAVSDIAKLSLVRFVKSESTSAQPNLH”, the protein production entry was “failed”.

With “MKFFGFYRPIALIAGITVSASILTSVATAAESPTSFQAITPAFSSSSAPEADAEANTSEATADLLYVAENQLLIKLSNAVVEDVNGEILMKDNKGTLLENLTAELQAQPGFSIEKVDSHTALLTMNPDEVPDLQDWRCGVGALSGGVAGVVATGLALAALGVATGGTGFAVLAAGGLAGYGTGAVANC”, the protein production entry was “failed”.
